Consider 1 molecule from patent US7601803 (SCIL PROTEINS, dated 2009).

In the test the target is T1, BSA (UniProt P02769 25-607).
T1 construct: Unconjugated carrier protein used as the control antigen
In words: concentration-dependent ELISA, BSA coated at 20 µg/ml, detected with tetra-His antibody. The method, then:
Specific binding of mutant 12A to the BSA-estradiol-17-hemisuccinate conjugate was assayed by carrying out an ELISA, with increasing concentrations of purified mutant 12A-His-Tag protein being used. Increasing amounts of gamma-II-crystalline wild-type (likewise with His-Tag) were used as control, and binding of both purified proteins to BSA was assayed. The concentration-dependant ELISA was carried out using NUNC-Tm plates. Antigen coating with the BSA-estradiol-17-hemisuccinate conjugate or with BSA was carried out at room temperature overnight. Coating was carried out with in each case 100 µl of antigen at a concentration of 20 µg/ml of PBS pH 7.6. After washing (2×PBS pH 7.6) and blocking the plates (3% Marvel/PBS at 37° C. for 2 h), in each case 1-13 µl of the protein stock solution (concentration 0.63 mg/ml) of purified Mu 12A or gamma-II-crystalline were introduced into a total 100 µl of reaction solution (PBS, 3% Marvel, x µl of protein) and incubated in the wells at 37° C. for 2 h. The secondary antibodies used were the tetra-His antibody from Qiagen in a dilution of 1:3000 and the anti-mouse POD antibody (Sigma) in a dilution of 1:2000. The antibodies were diluted with a 3% strength Marvel/PBS solution and 100 µl were added to the wells and incubated at 37° C. for in each case 1 h. […] No increase was detected using gamma-II-crystalline. […]
Background: ELISA stands for enzyme-linked immunosorbent assay.

T1 sequence (P02769 25-607 limits assumed): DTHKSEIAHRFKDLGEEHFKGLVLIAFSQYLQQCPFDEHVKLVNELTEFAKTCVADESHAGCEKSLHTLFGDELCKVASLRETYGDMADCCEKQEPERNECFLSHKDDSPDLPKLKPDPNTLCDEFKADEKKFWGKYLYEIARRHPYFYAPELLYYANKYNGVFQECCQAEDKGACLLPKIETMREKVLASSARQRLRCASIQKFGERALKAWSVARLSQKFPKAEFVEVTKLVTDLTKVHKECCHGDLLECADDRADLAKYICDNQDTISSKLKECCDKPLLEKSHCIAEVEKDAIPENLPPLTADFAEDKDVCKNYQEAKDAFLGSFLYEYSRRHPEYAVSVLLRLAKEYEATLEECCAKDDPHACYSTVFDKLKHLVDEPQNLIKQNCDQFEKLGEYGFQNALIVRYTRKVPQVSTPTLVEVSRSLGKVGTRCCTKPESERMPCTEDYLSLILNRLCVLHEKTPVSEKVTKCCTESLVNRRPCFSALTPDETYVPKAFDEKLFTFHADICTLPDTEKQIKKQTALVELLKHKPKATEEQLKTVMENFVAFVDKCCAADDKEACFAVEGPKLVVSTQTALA

B1: bovine gamma-II-crystalline wild-type, purified His-Tag protein after expression in pET-20b (other)
chain: MGKITFYEDRGFQGHCYECSSDCPNLQPYFSRCNSIRVDSGCWMLYERPNYQGHQYFLRRGDYPDYQQWMGFNDSIRSCRLIPQHTGTFRMRIYERDDFRGQMSEITDDCPSLQDRFHLTEVHSLNVLEGSWVLYEMPSYRGRQYLLRPGEYRRYLDWGAMNAKVGSLRRVMDFYSDPNSSSVDKLAAALEHHHHHH
notes: Starting protein used as the control, likewise with His-Tag; also called WT; gamma-B-crystalline
Regarding B1, the binding result is “no binding”.
